Measurements taken from US20230053258A1 (RAMOT AT TEL AVIV UNIVERSITY, published 2023).

Target: T1, recombinant human wild type insulin degrading enzyme (WT rhIDE) (human, UniProt P14735 42-1019)
T1 construct: also called WT IDE; active IDE
Assay: ELISA on coated WT rhIDE
Method: Following 3 washes with PBST, 3,3′,5,5′-tetramethylbenzidine (TMB; eBioscience, San Diego, Calif., USA) was added until color appeared. The reaction was stopped by adding 1 M H₂SO₄, and analyzed using a Spectrafluor plus microplate reader at 450 nm.

EC50 [nM]	Binder
~1	B1 Inclonal IgG (human IgG1) (antibody, V domains shown, also called B1 IgG) VH: not shown VL: DIVLTQSPGTLSLSPGERATLSCRASQSVSSHLAWYQQKPGQAPRLLIYDASNRATGIPDRFSGSGSGTDFTLTISRLEPEDFAVYYCQQYDSYPYTFGQGTKLDIK
~1	A9 Inclonal IgG (human IgG1) (antibody, V domains shown, also called A9 IgG; IgG A9) VH: EVQLLESGGGLVQPGGSLRLSCAASGFTFRSYGMHWVRQAPGRGLEWVSAINSNGDSTYYPDTVKDRFTISRDNSKNTLYLQMNSLRAEDTAVYYCARADYYDSTGYYYHGLDLWGQGTLVTVSS VL: DIVLTQPPSASGTPGQRVTISCSGSRDNIGKNYVSWYQQLPGTAPKLLIYRNNQRPSGVPDRFSGSKSGTSASLAISGLRSEDEADYYCSSYAGSSVIFGGGTKVTVL
